Target: Arp2/3 complex (bovine brain) (bovine) (UniProt P61157)
Assay: ITC; full-length Arpin in the syringe, ATP-bound Arp2/3 complex in the cell; 25 °C; Arp buffer (20 mM HEPES pH 7.5, 100 mM KCl, 1 mM MgCl2, 1 mM EGTA, 1 mM DTT) with 0.2 mM ATP; one-site isotherm

For “full-length human Arpin (from UniProt Q7Z6K5 1-226) (natural protein)”, the Kd was 1240 nM and the stoichiometry N was 1.06.

Reference: publication PMC8810855
